Where two headings read alike, the source gives them in different places.
Key:
[1] = biological target: recombinant human BCMA-his fusion protein (ACRO Biosystem, Cat. No. BCA-H522y) (human) (UniProt Q02223); test: ELISA, coated antigen
[2] = biological target: human BCMA on cells (NCI-H929, U266B1, HEK293 huBCMA) (human) (UniProt Q02223); test: flow cytometry on NCI-H929 cells
[3] = biological target: recombinant human BCMA-his fusion protein (ACRO Biosystem, Cat. No. BCA-H522y) (human) (UniProt Q02223); test: competitive ELISA, coated huBCMA-his, competitor 83A10-biotin
[4] = biological target: recombinant human BCMA-his fusion protein (ACRO Biosystem, Cat. No. BCA-H522y) (human) (UniProt Q02223); test: as above; remark: listed apart in the source

Chain of recombinant human BCMA-his fusion protein (ACRO Biosystem, Cat. No. BCA-H522y) (human) (Q02223 1-54): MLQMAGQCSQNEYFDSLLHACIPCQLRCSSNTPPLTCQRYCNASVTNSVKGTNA
Chain of positive control antibody 83A10 (VH): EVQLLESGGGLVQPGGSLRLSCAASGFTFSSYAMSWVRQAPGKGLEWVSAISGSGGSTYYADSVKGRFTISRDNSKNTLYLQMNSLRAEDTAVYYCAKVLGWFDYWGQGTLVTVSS
Chain of positive control antibody 83A10 (VL): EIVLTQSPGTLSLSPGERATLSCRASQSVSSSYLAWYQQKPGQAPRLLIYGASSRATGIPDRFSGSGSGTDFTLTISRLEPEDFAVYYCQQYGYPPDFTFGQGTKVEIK
Chain of human BCMA on cells (NCI-H929, U266B1, HEK293 huBCMA) (human) (Q02223 whole entry, the tested form may be a part): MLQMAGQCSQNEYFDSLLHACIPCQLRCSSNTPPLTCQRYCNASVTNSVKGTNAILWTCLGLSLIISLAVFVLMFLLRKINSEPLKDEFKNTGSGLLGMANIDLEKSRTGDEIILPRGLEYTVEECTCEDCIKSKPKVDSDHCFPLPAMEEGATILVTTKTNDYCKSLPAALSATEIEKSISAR

positive control antibody 83A10
EC50 [1]: 0.0253 nM | EC50 [2]: 8.69 nM | IC50 [3]: 9.8 µg/mL | IC50 [4]: 15 µg/mL

Source: US20240117061A1
